Positions count from the first letter of the chain named. Numbers in names are those of the source.
Experiments:
[1] = relative to genistein; cited from earlier work
[2] = Effect of reaction pH on the yield of long-chain glycosylated genistein; assay type: biochemical
Experimental: On the basis of Example 2, the mutant A156V/L174P/A166Y with the highest specificity to long-chain glycosylated genistein products was selected, the reaction temperature was controlled to be 50° C., and the reaction pH was changed into 4, 5, 6, 7 and 8 separately.
(§1) With reference to Example 2, the molar content of short-chain glycosylated genistein (here the short-chain glycosylated genistein was a mixture of monoglycosylated genistein, diglycosylated genistein and triglycosylated genistein) and long-chain glycosylated genistein (here the long-chain glycosylated genistein was a mixture of tetraglycosylated genistein, pentaglycosylated genistein and hexaglycosylated genistein) in a reaction solution was detected by HPLC, the ratio (%) of the molar content of short-chain glycosylated genistein and long-chain glycosylated genistein in the reaction solution to the molar content of total glycosylated genistein in the reaction solution and the content (g/L) of short-chain glycosylated genistein and long-chain glycosylated genistein in the reaction solution were calculated, and detection results were shown in Table 5 and FIG. 2.

[3] = Specificity of different cyclodextrin glucosyltransferases to glycosylated genistein products (maltodextrin donor, genistein receptor, HPLC); assay type: biochemical; settings: for content of long-chain glycosylated genistein in the reaction solution / content of short-chain glycosylated genistein in the reaction solution / ratio of the molar content of long-chain glycosylated genistein to the molar content of total glycosylated genistein in the reaction solution / ratio of the molar content of short-chain glycosylated genistein to the molar content of total glycosylated genistein in the reaction solution: 40° C., pH 6.5, 120 rpm, 20-24 hours; for specificity to long-chain glycosylated genistein products in comparison with wild type: in words, from Tables 1 to 2; for increase of the yield of long-chain glycosylated genistein compared with wild-type cyclodextrin glucosyltransferase: versus wild type
Experimental: Genistein (purchased from Sigma) was dissolved in dimethyl sulfoxide (DMSO) to prepare a genistein solution with a final concentration of 7.5 g/L; maltodextrin (purchased from Shanghai Sangon Biotech Co., Ltd.) was dissolved in a PBS buffer (50 mM, pH 6.5) to prepare a maltodextrin solution with a final concentration of 40 g/L; the freeze-fried pure enzymes of the mutants A156V/L174P, A156V/L174P/166Y, A156V/L174P/A166V, A156V/L174P/A166G, A156V/L174P/A166K, A156S, A156L and L174M obtained in Example 1 were dissolved in a PBS buffer (50 mM, pH 6.5) separately to prepare a CGTase enzyme solution with a final concentration of 15 U/L; 300 μL of the genistein solution, 500 μL of the maltodextrin solution and 200 μL of the CGTase enzyme solution were taken separately, mixed in a 2 mL vial with a lid and placed in a shaker for slow shaking at 40° C. and 120 rpm for 20-24 hours to obtain a reaction solution.
The molar content of short-chain glycosylated genistein (here the short-chain glycosylated genistein was a mixture of monoglycosylated genistein, diglycosylated genistein and triglycosylated genistein) and long-chain glycosylated genistein (here the long-chain glycosylated genistein was a mixture of tetraglycosylated genistein, pentaglycosylated genistein and hexaglycosylated genistein) in the reaction solution was detected by HPLC, the ratio (%) of the molar content of short-chain glycosylated genistein and long-chain glycosylated genistein in the reaction solution to the molar content of total glycosylated genistein in the reaction solution and the content (g/L) of short-chain glycosylated genistein and long-chain glycosylated genistein in the reaction solution were calculated, and detection results were shown in Tables 1 to 2. A method for detecting the ratio (%) of the content of short-chain glycosylated genistein and long-chain glycosylated genistein in the reaction solution to the content of total glycosylated genistein in the reaction solution by HPLC included that the reaction solution was filtered through a 0.22 μm filter membrane, and an Amethyst C18-H column (4.6*250 mm, Sepax, America) was used for detection (see Table 3 for specific detection conditions). The content of long-chain glycosylated genistein=the molar content of hexaglycosylated genistein*the molecular weight of hexaglycosylated genistein+ the molar content of pentaglycosylated genistein*the molecular weight of pentaglycosylated genistein+ the molar content of tetraglycosylated genistein*the molecular weight of tetraglycosylated genistein, and the content of short-chain glycosylated genistein=the molar content of triglycosylated genistein*the molecular weight of triglycosylated genistein+ the molar content of diglycosylated genistein*the molecular weight of diglycosylated genistein+ the molar content of monoglycosylated genistein*the molecular weight of monoglycosylated genistein.

[4] = Effect of reaction temperature on the yield of long-chain glycosylated genistein; assay type: biochemical
Experimental: On the basis of Example 2, the mutant A156V/L174P/A166Y with the highest specificity to long-chain glycosylated genistein products was selected, and the reaction temperature was changed into 30° C., 35° C., 40° C., 45° C., 50° C., 55° C. and 60° C. separately.
as §1, with “4” for “5”, “1.” for “2.”

## genistein diglucoside
[1]
  solubility in water, times higher than that of genistein: 3,700 times

## genistein triglucoside
[1]
  solubility in water, times higher than that of genistein: 44,000 times

B1: A156V/L174P/A166Y: cyclodextrin glucosyltransferase mutant: A156V, L174P and alanine 166 into tyrosine of SEQ ID NO: 1 (protein)
chain: SPDTSVDNKVNFSTDVIYQIVTDRFADGDRTNNPAGDAFSGDRSNLKLYFGGDWQGIIDKINDGYLTGMGVTALWISQPVENITSVIKYSGVNNTSYHGYWARDFKQTNDAFGDFADFQNLIDTAHAHNIKVVIDFAPNHTSPADRDNPGFAENGVLYDNGSLLGYYSNDTAGPFHHNGGTDFSTIEDGIYKNLYDLADINHNNNAMDAYFKSAIDLWLGMGVDGIRFDAVKHMPFGWQKSFVSSIYGGDHPVFTFGEWYLGADQTDGDNIKFANESGMNLLDFEYAQEVREVFRDKTETMKDLYEVLASTESQYDYINNMVTFIDNHDMDRFQVAGSGTRATEQALALTLTSRGVPAIYYGTEQYMTGDGDPNNRAMMTSFNTGTTAYKVIQALAPLRKSNPAIAYGTTTERWVNNDVLIIERKFGSSAALVAINRNSSAAYPISGLLSSLPAGTYSDVLNGLLNGNSITVGSGGAVTNFTLAAGGTAVWQYTAPETSPAIGNVGPTMGQPGNIVTIDGRGFGGTAGTVYFGTTAVTGSGIVSWEDTQIKAVIPKVAAGKTGVSVKTSSGTASNTFKSFNVLTGDQVTVRFLVNQANTNYGTNVYLVGNAAELGSWDPNKAIGPMYNQVIAKYPSWYYDVSVPAGTKLDFKFIKKGGGTVTWEGGGNHTYTTPASGVGTVTVDWQN
modifications: Translated from synthetic DNA
[2]; FIG. 2, pH 4 (highest)
  ratio of the molar content of long-chain glycosylated genistein to the molar content of total glycosylated genistein in the reaction solution: 70%
[2]; FIG. 2, pH 4 versus pH 6.5
  increase of the ratio of long-chain to total glycosylated genistein in comparison with pH 6.5: 30%
[2]; pH 4, 50° C.
  content of long-chain glycosylated genistein in the reaction solution: 10.2 g/L
  content of short-chain glycosylated genistein in the reaction solution: 2.6 g/L
[2]; pH 4 or 8 (highest), 50° C.
  yield of long-chain glycosylated genistein: 10.2 to 10.3 g/L
[2]; pH 4 or 8 versus pH 6.5
  increase of the yield of long-chain glycosylated genistein in comparison with pH 6.5: 20%
[2]; pH 5, 50° C.
  content of long-chain glycosylated genistein in the reaction solution: 7.2 g/L
  content of short-chain glycosylated genistein in the reaction solution: 8.8 g/L
[2]; pH 6, 50° C.
  content of long-chain glycosylated genistein in the reaction solution: 8.5 g/L
  content of short-chain glycosylated genistein in the reaction solution: 8.0 g/L
[2]; pH 7, 50° C.
  content of long-chain glycosylated genistein in the reaction solution: 9.7 g/L
  content of short-chain glycosylated genistein in the reaction solution: 5.5 g/L
[2]; pH 8, 50° C.
  content of long-chain glycosylated genistein in the reaction solution: 10.3 g/L
  content of short-chain glycosylated genistein in the reaction solution: 3.6 g/L
[3]
  content of long-chain glycosylated genistein in the reaction solution: 8.5 g/L
  content of short-chain glycosylated genistein in the reaction solution: 8.0 g/L
  ratio of the molar content of long-chain glycosylated genistein to the molar content of total glycosylated genistein in the reaction solution: 40%
  ratio of the molar content of short-chain glycosylated genistein to the molar content of total glycosylated genistein in the reaction solution: 60%
  specificity to long-chain glycosylated genistein products in comparison with wild type: significantly improved
  increase of the yield of long-chain glycosylated genistein compared with wild-type cyclodextrin glucosyltransferase: 165%
[4]; 30° C.
  content of long-chain glycosylated genistein in the reaction solution: 6.8 g/L
  content of short-chain glycosylated genistein in the reaction solution: 8.9 g/L
[4]; 35° C.
  content of long-chain glycosylated genistein in the reaction solution: 7.6 g/L
  content of short-chain glycosylated genistein in the reaction solution: 8.5 g/L
[4]; 40° C.
  content of long-chain glycosylated genistein in the reaction solution: 8.4 g/L
  content of short-chain glycosylated genistein in the reaction solution: 8.0 g/L
[4]; 45-50° C. versus 40° C.
  increase of the yield of long-chain glycosylated genistein in comparison with 40° C.: 21.4-23.8%
[4]; 45° C.
  content of long-chain glycosylated genistein in the reaction solution: 10.1 g/L
  content of short-chain glycosylated genistein in the reaction solution: 6.8 g/L
[4]; 50° C.
  content of long-chain glycosylated genistein in the reaction solution: 10.0 g/L
  content of short-chain glycosylated genistein in the reaction solution: 6.6 g/L
[4]; 55° C.
  content of long-chain glycosylated genistein in the reaction solution: 8.9 g/L
  content of short-chain glycosylated genistein in the reaction solution: 5.6 g/L
[4]; 60° C.
  content of long-chain glycosylated genistein in the reaction solution: 5.7 g/L
  content of short-chain glycosylated genistein in the reaction solution: 3.6 g/L
[4]; FIG. 1, highest value reached with rising temperature
  ratio of the molar content of long-chain glycosylated genistein to the molar content of total glycosylated genistein in the reaction solution: 49%
[4]; FIG. 1, versus 40° C.
  increase of the ratio of long-chain to total glycosylated genistein in comparison with 40° C.: 21%
[4]; temperature 45-50° C. (highest)
  yield of long-chain glycosylated genistein: 10.2 to 10.4 g/L

B2: A156V/L174P/A166G: cyclodextrin glucosyltransferase mutant: A156V, L174P and alanine 166 into glycine of SEQ ID NO: 1 (protein)
chain: B1 chain with Y166G
modifications: Translated from synthetic DNA
[3]
  content of long-chain glycosylated genistein in the reaction solution: 4.4 g/L
  content of short-chain glycosylated genistein in the reaction solution: 10.9 g/L
  ratio of the molar content of long-chain glycosylated genistein to the molar content of total glycosylated genistein in the reaction solution: 20%
  ratio of the molar content of short-chain glycosylated genistein to the molar content of total glycosylated genistein in the reaction solution: 80%
  specificity to long-chain glycosylated genistein products in comparison with wild type: significantly improved

B3: A156V/L174P/A166K: cyclodextrin glucosyltransferase mutant: A156V, L174P and alanine 166 into lysine of SEQ ID NO: 1 (protein)
chain: B1 chain with Y166K
modifications: Translated from synthetic DNA
[3]
  content of long-chain glycosylated genistein in the reaction solution: 5.1 g/L
  content of short-chain glycosylated genistein in the reaction solution: 10.1 g/L
  ratio of the molar content of long-chain glycosylated genistein to the molar content of total glycosylated genistein in the reaction solution: 24%
  ratio of the molar content of short-chain glycosylated genistein to the molar content of total glycosylated genistein in the reaction solution: 76%
  specificity to long-chain glycosylated genistein products in comparison with wild type: significantly improved
  increase of the yield of long-chain glycosylated genistein compared with wild-type cyclodextrin glucosyltransferase: 59.4%

B4: Wild type: cyclodextrin glucosyltransferase with the amino acid sequence shown as SEQ ID NO: 1 (protein)
chain: B1 chain with V156A, Y166A, P174L
modifications: Translated from synthetic DNA
[3]
  content of long-chain glycosylated genistein in the reaction solution: 3.2 g/L
  content of short-chain glycosylated genistein in the reaction solution: 11.4 g/L
  ratio of the molar content of long-chain glycosylated genistein to the molar content of total glycosylated genistein in the reaction solution: 15%
  ratio of the molar content of short-chain glycosylated genistein to the molar content of total glycosylated genistein in the reaction solution: 85%

— US11203743B2, “Method for producing long-chain glycosylated genistein” (Jiangnan University, priority 2019, dated 2021)
